How the values were obtained:
[1] = CHX chase, HEK 293, western blot; conditions: control: no OGT/OGA overexpression or no inhibitor
[2] = western blot of total FOXP3, HEK 293; conditions: control: no OGT/OGA overexpression or no inhibitor
[3] = not described in main text (Supplementary Fig. 2F); conditions: glycan lost; control: wild-type FOXP3
[4] = CHX chase, HEK 293, OGT overexpression, western blot; conditions: glycan lost; control: wild-type FOXP3
[5] = retroviral transduction of CD4+CD25- T cells, FOXP3 MFI; conditions: glycan lost; control: wild-type FOXP3

B1: FOXP3: TMG (protein)
parent chain: MPNPRPAKPMAPSLALGPSPGVLPSWKTAPKGSELLGTRGSGGPFQGRDLRSGAHTSSSLNPLPPSQLQLPTVPLVMVAPSGARLGPSPHLQALLQDRPHFMHQLSTVDAHAQTPVLQVRPLDNPAMISLPPPSAATGVFSLKARPGLPPGINVASLEWVSREPALLCTFPRSGTPRKDSNLLAAPQGSYPLLANGVCKWPGCEKVFEEPEEFLKHCQADHLLDEKGKAQCLLQREVVQSLEQQLELEKEKLGAMQAHLAGKMALAKAPSVASMDKSSCCIVATSTQGSVLPAWSAPREAPDGGLFAVRRHLWGSHGNSSFPEFFHNMDYFKYHNMRPPFTYATLIRWAILEAPERQRTLNEIYHWFTRMFAYFRNHPATWKNAIRHNLSLHKCFVRVESEKGAVWTVDEFEFRKKRSQRPNKCSNPCP
degradation_or_half_life ([1]; glycan gained): increases | expression_or_secretion ([2]; glycan gained): increases

B2: FOXP3: ST045849 (protein)
parent chain: MPNPRPAKPMAPSLALGPSPGVLPSWKTAPKGSELLGTRGSGGPFQGRDLRSGAHTSSSLNPLPPSQLQLPTVPLVMVAPSGARLGPSPHLQALLQDRPHFMHQLSTVDAHAQTPVLQVRPLDNPAMISLPPPSAATGVFSLKARPGLPPGINVASLEWVSREPALLCTFPRSGTPRKDSNLLAAPQGSYPLLANGVCKWPGCEKVFEEPEEFLKHCQADHLLDEKGKAQCLLQREVVQSLEQQLELEKEKLGAMQAHLAGKMALAKAPSVASMDKSSCCIVATSTQGSVLPAWSAPREAPDGGLFAVRRHLWGSHGNSSFPEFFHNMDYFKYHNMRPPFTYATLIRWAILEAPERQRTLNEIYHWFTRMFAYFRNHPATWKNAIRHNLSLHKCFVRVESEKGAVWTVDEFEFRKKRSQRPNKCSNPCP
degradation_or_half_life ([1]; glycan lost): decreases | expression_or_secretion ([2]; glycan lost): decreases

B3: FOXP3: OGA overexpression (protein)
parent chain: MPNPRPAKPMAPSLALGPSPGVLPSWKTAPKGSELLGTRGSGGPFQGRDLRSGAHTSSSLNPLPPSQLQLPTVPLVMVAPSGARLGPSPHLQALLQDRPHFMHQLSTVDAHAQTPVLQVRPLDNPAMISLPPPSAATGVFSLKARPGLPPGINVASLEWVSREPALLCTFPRSGTPRKDSNLLAAPQGSYPLLANGVCKWPGCEKVFEEPEEFLKHCQADHLLDEKGKAQCLLQREVVQSLEQQLELEKEKLGAMQAHLAGKMALAKAPSVASMDKSSCCIVATSTQGSVLPAWSAPREAPDGGLFAVRRHLWGSHGNSSFPEFFHNMDYFKYHNMRPPFTYATLIRWAILEAPERQRTLNEIYHWFTRMFAYFRNHPATWKNAIRHNLSLHKCFVRVESEKGAVWTVDEFEFRKKRSQRPNKCSNPCP
degradation_or_half_life ([1]; glycan lost): decreases | expression_or_secretion ([2]; glycan lost): decreases

B4: FOXP3: FOXP3-5A (protein)
parent chain: MPNPRPAKPMAPSLALGPSPGVLPSWKTAPKGSELLGTRGSGGPFQGRDLRSGAHTSSSLNPLPPSQLQLPTVPLVMVAPSGARLGPSPHLQALLQDRPHFMHQLSTVDAHAQTPVLQVRPLDNPAMISLPPPSAATGVFSLKARPGLPPGINVASLEWVSREPALLCTFPRSGTPRKDSNLLAAPQGSYPLLANGVCKWPGCEKVFEEPEEFLKHCQADHLLDEKGKAQCLLQREVVQSLEQQLELEKEKLGAMQAHLAGKMALAKAPSVASMDKSSCCIVATSTQGSVLPAWSAPREAPDGGLFAVRRHLWGSHGNSSFPEFFHNMDYFKYHNMRPPFTYATLIRWAILEAPERQRTLNEIYHWFTRMFAYFRNHPATWKNAIRHNLSLHKCFVRVESEKGAVWTVDEFEFRKKRSQRPNKCSNPCP
other: OGT-induced transcriptional suppression activity [3]: abolishes | degradation_or_half_life [4]: decreases | expression_or_secretion [5]: decreases

B5: FOXP3: OGT overexpression (protein)
parent chain: MPNPRPAKPMAPSLALGPSPGVLPSWKTAPKGSELLGTRGSGGPFQGRDLRSGAHTSSSLNPLPPSQLQLPTVPLVMVAPSGARLGPSPHLQALLQDRPHFMHQLSTVDAHAQTPVLQVRPLDNPAMISLPPPSAATGVFSLKARPGLPPGINVASLEWVSREPALLCTFPRSGTPRKDSNLLAAPQGSYPLLANGVCKWPGCEKVFEEPEEFLKHCQADHLLDEKGKAQCLLQREVVQSLEQQLELEKEKLGAMQAHLAGKMALAKAPSVASMDKSSCCIVATSTQGSVLPAWSAPREAPDGGLFAVRRHLWGSHGNSSFPEFFHNMDYFKYHNMRPPFTYATLIRWAILEAPERQRTLNEIYHWFTRMFAYFRNHPATWKNAIRHNLSLHKCFVRVESEKGAVWTVDEFEFRKKRSQRPNKCSNPCP
degradation_or_half_life ([1]; glycan gained): increases | expression_or_secretion ([2]; glycan gained): increases

Reference: article PMC6341091
